This passage reports self-cleavage results from the RNAGym collection of RNA variant scans (doi:10.7554/elife.80360).

The labels stand for the following.
B1: Hairpin Ribozyme (parent)
chain: GUCCUCUUUCACGUGCGCGUGAAAGAGAGAAGUGAACCAGAGAAACACACGUUGUGGUAUAUUACCUGGUA

The variants in this data set derive from B1. The data set is described as follows: self-cleavage, relative activity (ratio to wild type); higher = more cleavage; co-transcriptional.
For A44U U62G, the self-cleavage came to 0.0672.
A44U U62C: the self-cleavage was 0.0868.
As for A45G U58G, the self-cleavage stood at 0.199.
As for A44C U52C, the self-cleavage stood at 0.213.
Regarding A44C U52A, the self-cleavage was determined as 0.0299.
Next, A44C U58G: 0.128; A44C U58C: 0.141; A45G U60A: 0.105.
A45G G51U: the self-cleavage came out at 0.271.
As to A44U G51A, the self-cleavage was 0.157.
In the case of A44U G51U, the self-cleavage was determined as 0.096.
A44U G51C: the self-cleavage was found to be 0.246.
A43U A45C: the self-cleavage came out at 0.0872.
For the variant A43U A45G, the self-cleavage stood at 0.119.
On to C46A C66U, for which the self-cleavage turned out to be 0.15.
Next, C46A C66A: 0.0901; C46A C66G: 0.14.
Consider A45U C46U, for which the self-cleavage turned out to be 0.12.
For the variant C46U G54C, the self-cleavage came out at 0.149.
For A44G U60A, the self-cleavage came out at 0.171.
For A43G C65U, the self-cleavage worked out at 0.224.
Turning to A45G G68C, the self-cleavage worked out at 0.136.
Consider A47C A71U, for which the self-cleavage was found to be 0.147.
For A47C A71G, the self-cleavage came to 0.344.
Next, C46U G56U: 0.0878; C46G U55C: 0.151; A43G A45U: 0.0816.
Next, A43U G57C: 0.17.
On to A45C U53C, for which the self-cleavage stood at 0.0463.
With A45C U53A, the self-cleavage came to 0.123.
For the variant C46A A71U, the self-cleavage amounted to 0.161.
As to A43U U67G, the self-cleavage amounted to 0.0666.
Next, A43U U67A: 0.0806; A43U C46U: 0.187; C46A U58C: 0.206.
Next, A44U G56C: 0.239.
As to A44U A47U, the self-cleavage turned out to be 0.0528.
As for C46A U67G, the self-cleavage came to 0.142.
Regarding C46A U67C, the self-cleavage was found to be 0.11.
For A43U G68C, the self-cleavage stood at 0.106.
Turning to A45U A59U, the self-cleavage was found to be 0.154.
Consider A45U A59C, for which the self-cleavage was 0.285.
On to A45U A59G, for which the self-cleavage was 0.0526.
Next, A44C C65G: 0.17.
Turning to A45C U60G, the self-cleavage came to 0.165.
For the variant A44G G54U, the self-cleavage was 0.16.
For the variant A43G C46U, the self-cleavage turned out to be 0.0992.
With A43U C66G, the self-cleavage was determined as 0.138.
With C46U G69U, the self-cleavage amounted to 0.172.
As to C46U G69A, the self-cleavage stood at 0.123.
Consider A44G C66U, for which the self-cleavage came out at 0.0408.
For the variant A45U G68C, the self-cleavage is 0.202.
On to C46G A64U, for which the self-cleavage turned out to be 0.185.
Take C46G A64G: the self-cleavage is 0.144.
Consider C46G A64C, for which the self-cleavage is 0.152.
In the case of C46U U70A, the self-cleavage was 0.255.
On to C46U U70G, for which the self-cleavage is 0.189.
For A45U U62C, the self-cleavage came to 0.127.
Regarding A45C U58C, the self-cleavage was determined as 0.0787.
Next, C46G G69U: 0.105; A45U U53G: 0.263.
Next, A45U U53A: 0.151.
In the case of A47C C65U, the self-cleavage was 0.219.
Next, A45G U63A: 0.124; A43G U62A: 0.125; A43G U62G: 0.0971.
Take A43G U62C: the self-cleavage is 0.162.
For the variant A43U A61U, the self-cleavage stood at 0.174.
Turning to C46G C65G, the self-cleavage was determined as 0.078.
On to C46A U62C, for which the self-cleavage was 0.193.
For the variant A43U C65U, the self-cleavage worked out at 0.144.
For the variant A43U C65G, the self-cleavage was found to be 0.155.
Next, A47C C66U: 0.155.
Consider A47C C66G, for which the self-cleavage was 0.17.
Next, A45G G69A: 0.117; A45G G69C: 0.171; A45G G69U: 0.141.
As for A43G G51U, the self-cleavage is 0.245.
As for A44U G69C, the self-cleavage turned out to be 0.159.
Take A43C U55A: the self-cleavage came to 0.174.
Next, A43C U55C: 0.201; C46U U62A: 0.148; A44G A47G: 0.17.
For the variant A44C G57C, the self-cleavage stood at 0.215.
Next, A44C G57A: 0.135; A45C U67A: 0.118; C46U G57U: 0.234.
In the case of C46U G57C, the self-cleavage is 0.0631.
For the variant C46U G57A, the self-cleavage worked out at 0.186.
In the case of A44C U62C, the self-cleavage amounted to 0.279.
With A45G A71U, the self-cleavage amounted to 0.0799.
Next, A45G A71G: 0.269.
With A45G A71C, the self-cleavage stood at 0.399.
For A43G A59U, the self-cleavage was found to be 0.157.
Take A43G A59C: the self-cleavage stood at 0.153.
As for A45G G56U, the self-cleavage worked out at 0.131.
Consider A45C U62A, for which the self-cleavage came out at 0.332.
Next, A45C U62G: 0.0741.
With A44C U70C, the self-cleavage came out at 0.176.
Next, A44C U70A: 0.109.
A43C U70A: the self-cleavage came to 0.0723.
A47C G56A: the self-cleavage is 0.233.
A43C C50U: the self-cleavage is 0.13.
As to A45U A47U, the self-cleavage amounted to 0.0501.
Consider A45U A47C, for which the self-cleavage came to 0.132.
As for A45U A47G, the self-cleavage amounted to 0.178.
A44U C48G: the self-cleavage amounted to 0.12.
Next, A44C A61C: 0.288; A47C A59U: 0.112; A47C A59C: 0.19.
For the variant C46A G56C, the self-cleavage is 0.122.
Consider A45C G51A, for which the self-cleavage turned out to be 0.0999.
Consider A43C G51A, for which the self-cleavage is 0.0814.
As to A43C G51C, the self-cleavage was 0.193.
Take A44U U70A: the self-cleavage came out at 0.0951.
Take A44U U70C: the self-cleavage is 0.0872.
Turning to A43G U67A, the self-cleavage was determined as 0.125.
For the variant A44G G69C, the self-cleavage came out at 0.196.
In the case of A44G G69U, the self-cleavage was 0.0884.
For the variant A43C U63G, the self-cleavage was found to be 0.117.
Next, A43U A59C: 0.12; A43U A44U: 0.141; A43U A44C: 0.157.
A45G G54U: the self-cleavage is 0.2.
Take A45G G54A: the self-cleavage came out at 0.218.
As to A44C U53G, the self-cleavage stood at 0.0885.
Regarding A43U U70A, the self-cleavage was determined as 0.145.
As for A45U U67A, the self-cleavage came to 0.0841.
Regarding C46U C65A, the self-cleavage was determined as 0.184.
Next, A44U C46G: 0.0928.
Next, C46A U55A: 0.204.
Turning to A47C, the self-cleavage came to 0.335.
Next, A43U U63G: 0.307; A43G A44C: 0.0882.
On to C46A G68U, for which the self-cleavage was 0.137.
Regarding A44G U67G, the self-cleavage came to 0.149.
In the case of A44G U67A, the self-cleavage turned out to be 0.161.
Consider A45G C66U, for which the self-cleavage is 0.218.
As to C46U G68C, the self-cleavage turned out to be 0.123.
On to C46A U52C, for which the self-cleavage is 0.271.
For C46A U52G, the self-cleavage worked out at 0.119.
Turning to A43C A49G, the self-cleavage came to 0.
A43C G57U: the self-cleavage turned out to be 0.149.
As to A45U C65U, the self-cleavage amounted to 0.175.
A44C A45C: the self-cleavage stood at 0.
With A44C A47C, the self-cleavage came out at 0.121.
Regarding C46A U63G, the self-cleavage came out at 0.092.
On to A43G A47U, for which the self-cleavage stood at 0.131.
Next, A44U C66G: 0.183.
Consider A44G, for which the self-cleavage was 0.146.
As to A44U, the self-cleavage was 0.141.
Next, A44C: 0.148.
Next, C46G A71U: 0.211; A44G U55A: 0.0483.
Consider A44G U55C, for which the self-cleavage turned out to be 0.0374.
Next, C46G C48G: 0.0704; A43U C50A: 0.0923; A45C A59U: 0.151.
For the variant A45C A59C, the self-cleavage amounted to 0.358.
Regarding C46A C48U, the self-cleavage was determined as 0.138.
Take C46A C48G: the self-cleavage came out at 0.211.
On to C46A C48A, for which the self-cleavage worked out at 0.127.
In the case of A43U U58C, the self-cleavage was 0.189.
For C46G G56C, the self-cleavage was found to be 0.123.
Next, C46G G56U: 0.173; C46G G56A: 0.127.
Next, A45U G51U: 0.209.
